Tests used:
[1] = biological target: NTSR1 (UniProt P30989); assay: cell-based or functional assay
[2] = biological target: p12026-BSA-conjugate (human); assay: ELISA, plate coated with p12026-BSA-conjugate 4 µg/ml; serum dilution 1:400
[3] = biological target: p12026-BSA-conjugate (human); assay: ELISA, plate coated with p12026-BSA-conjugate 4 µg/ml; serum dilution 1:3200
[4] = biological target: p12026-BSA-conjugate (human); assay: ELISA, plate coated with p12026-BSA-conjugate 4 µg/ml; serum dilution 1:800
[5] = biological target: p12026-BSA-conjugate (human); assay: ELISA, plate coated with p12026-BSA-conjugate 4 µg/ml; serum dilution 1:100
[6] = biological target: p12026-BSA-conjugate (human); assay: ELISA, plate coated with p12026-BSA-conjugate 4 µg/ml; serum dilution 1:1600
[7] = biological target: p12026-BSA-conjugate (human); assay: ELISA, plate coated with p12026-BSA-conjugate 4 µg/ml; serum dilution 1:200
[8] = biological target: p12026-BSA-conjugate (human); assay: ELISA, plate coated with p12026-BSA-conjugate 4 µg/ml; serum dilution 1:6400
[9] = biological target: p12026-BSA-conjugate (human); assay: ELISA, plate coated with p12026-BSA-conjugate 4 µg/ml; serum dilution 1:12800

p12026-BSA-conjugate (human), sequence (P02769 25-607 limits assumed): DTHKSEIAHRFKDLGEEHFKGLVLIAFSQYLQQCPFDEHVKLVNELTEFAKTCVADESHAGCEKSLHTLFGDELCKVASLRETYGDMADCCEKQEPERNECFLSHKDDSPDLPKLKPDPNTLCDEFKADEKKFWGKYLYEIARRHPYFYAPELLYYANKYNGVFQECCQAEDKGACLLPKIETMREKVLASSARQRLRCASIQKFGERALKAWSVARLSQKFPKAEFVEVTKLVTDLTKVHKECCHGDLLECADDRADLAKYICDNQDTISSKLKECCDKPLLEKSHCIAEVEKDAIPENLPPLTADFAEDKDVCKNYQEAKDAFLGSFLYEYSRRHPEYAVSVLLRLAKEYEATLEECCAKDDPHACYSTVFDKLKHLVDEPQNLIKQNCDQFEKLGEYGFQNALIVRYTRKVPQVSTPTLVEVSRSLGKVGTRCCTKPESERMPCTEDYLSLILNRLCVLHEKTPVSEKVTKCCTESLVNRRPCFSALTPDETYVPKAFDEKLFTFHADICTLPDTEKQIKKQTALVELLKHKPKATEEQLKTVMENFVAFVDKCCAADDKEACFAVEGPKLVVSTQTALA
NTSR1, sequence (P30989 whole entry): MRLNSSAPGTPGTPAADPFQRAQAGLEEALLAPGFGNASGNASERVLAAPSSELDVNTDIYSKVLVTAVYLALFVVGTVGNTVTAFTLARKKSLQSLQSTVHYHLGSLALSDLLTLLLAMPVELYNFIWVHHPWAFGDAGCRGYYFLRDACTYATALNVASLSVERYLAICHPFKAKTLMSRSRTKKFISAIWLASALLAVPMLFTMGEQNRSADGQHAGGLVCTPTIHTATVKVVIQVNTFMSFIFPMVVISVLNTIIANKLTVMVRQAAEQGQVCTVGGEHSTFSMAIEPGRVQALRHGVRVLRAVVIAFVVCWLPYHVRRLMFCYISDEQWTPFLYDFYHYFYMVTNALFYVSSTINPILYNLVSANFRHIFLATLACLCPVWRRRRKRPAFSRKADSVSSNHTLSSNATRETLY

Row | Substance | reduction of cell growth of CHO NTSR1 overexpressing cells [1] [%] | OD405nm [2] [OD405nm] | OD405nm [3] [OD405nm] | OD405nm [4] [OD405nm] | OD405nm [5] [OD405nm] | OD405nm [6] [OD405nm] | OD405nm [7] [OD405nm] | OD405nm [8] [OD405nm] | OD405nm [9] [OD405nm]
1 | NTS released or expressed by cancer cells (from UniProt P30990 24-163) (ligand) | 60 | – | – | – | – | – | – | – | –
2 | normal serum (antibody) | – | 0.016 | 0.01 | 0.012 | 0.032 | 0.008 | 0.016 | 0.009 | 0.004

From patent publication US20170218057A1
